The chains are these.
B1: 101 (antibody, V domains shown)
VH: QSVKESEGGLFKPTDTLTLTCTVSGFSLSRYGVSWVRQAPGSGLQWIGAIGETGRAYYANWAKSRSTITRNTNVNTVTLKMTSLTAADTATYFCARGEEFNNGWGAFNIWGPGTLVTVSS
VL: AYDMTQTPASVSEPVGGTVTIKCQASENIYTSLAWYQQKPGQPPKLLIYSASTLASGVPSRFKGSGSGTEFTLTISDLECADAASYYCQQGFATSNVENPFGGGTEVVVK
B2: 877 (antibody, V domains shown)
VH: QSVKESEGGLFKPTDTLTLTCTVSGFSLSRYGVTWVRQAPGNGLQWIGTIGETGRSYYASWAKSRSTVTRNTNENTVTLKMTSLTAADTATYFCARGELFNNGWGAFNIWGPGTLVTVSS
VL: AYDMTQTPASVSEPVGGTVTIKCQASENIYSSLAWYQQKPGQPPKLLIYSASTLASGVSSRFKGSGSGTEFTLTISGVQCEDAATYYCQQGFGTNNVENPFGGGTEVVVK
B3: 810 (antibody, V domains shown)
VH: QSVKESEGGLFKPADTLTLTCTVSGFSLSRYGVSWVRQAPGNGLEWIGTIGEAGRAYYANWARSRSTITRTTNLNTVTLTMTSLTAADTATYFCARGEVFNNGWGAFNIWGPGTLVTVSS
VL: AYDMTQTPASVSEPVGGTVTIKCQASESIYSGLAWYQQKPGQPPKLLIYQASTLASGVSSRFKGSGSGTDFTLAISDLECADAATYYCQQGFGTSNVENPFGGGSEVVVK

The target of the assay is recombinant human TNFa (Shanghai Primegene Bi-Tech) (Homo sapiens, UniProt P01375).
recombinant human TNFa (Shanghai Primegene Bi-Tech), sequence (P01375 whole entry): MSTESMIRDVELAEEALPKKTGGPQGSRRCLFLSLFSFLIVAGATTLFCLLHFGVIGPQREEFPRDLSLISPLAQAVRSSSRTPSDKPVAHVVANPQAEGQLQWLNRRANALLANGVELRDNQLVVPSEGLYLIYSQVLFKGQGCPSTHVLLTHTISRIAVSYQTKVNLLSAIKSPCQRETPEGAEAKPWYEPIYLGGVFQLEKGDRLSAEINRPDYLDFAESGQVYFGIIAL
Consider B1, for which the binding result was “binds”.

In the case of B2, the binding result is reported as “binds”.

For B3, the binding result is listed as “binds”.
